Test results: patent publication US20030198957

human NOV8 (EDSP, Endothelial Dual Specificity Phosphatase domain-containing protein)
in vitro phosphorylation (dephosphorylation) assay (P38 MAP kinase): has little activity on P38 MAP kinase | in vitro phosphorylation (dephosphorylation) assay (ERK): can dephosphorylate ERK and JNK | in vitro phosphorylation (dephosphorylation) assay (JNK): can dephosphorylate ERK and JNK
